In the test the target is T1, rMuIL15Ra (murine IL-15 receptor R&D Systems) (murine), Q60819.
T1 chain: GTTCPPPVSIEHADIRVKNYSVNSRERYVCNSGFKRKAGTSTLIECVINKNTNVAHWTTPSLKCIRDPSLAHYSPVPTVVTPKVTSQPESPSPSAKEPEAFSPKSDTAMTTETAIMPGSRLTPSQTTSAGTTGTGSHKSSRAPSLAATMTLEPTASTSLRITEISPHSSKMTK
Description: BLI (ForteBio), biotinylated rMuIL15Ra on SA biosensors, rMuIL15 in solution, 1:1 fit. As to conditions: remark: other sources report otherwise.

B1: rMuIL15 (R&D Systems), P48346 49-162 (ligand, murine, UniProt P48346 49-162, looked up)
chain: NWIDVRYDLEKIESLIQSIHIDTTLYTDSDFHPSCKVTAMNCFLLELQVILHEYSNMTLNETVRNVLYLANSTLSSNKNVAESGCKECEELEEKTFTEFLQSFIRIVQMFINTS
modifications: here or on the partner: biotinylated with EZ-Link NHS-LC-Biotin (sites not given)
The term Kd denotes the concentration at which binding is half-saturated. Take B1: the Kd came to 5.57 nM.
